In PMC10942606:
Numbering of substitutions follows the chain as printed.

Key:
Assay in all cases: MST
[1] = molecular target: T1, Pcf1_KER* (Schizosaccharomyces pombe, UniProt Q1MTN9 56-170, R147E;K150E;K154E;R161E;K168E)
T1 sequence: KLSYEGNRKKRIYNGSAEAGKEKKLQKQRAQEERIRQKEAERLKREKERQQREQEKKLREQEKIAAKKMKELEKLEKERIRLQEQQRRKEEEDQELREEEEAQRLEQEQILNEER

[2] = molecular target: T2, Pcf1-PIP*;Pcf2;Pcf3 (Schizosaccharomyces …, UniProt Q1MTN9;O13985;Q9Y825 1-544;1-512;1-408, Q172A;L175A;F178A;F179A||)
T2 sequence 1: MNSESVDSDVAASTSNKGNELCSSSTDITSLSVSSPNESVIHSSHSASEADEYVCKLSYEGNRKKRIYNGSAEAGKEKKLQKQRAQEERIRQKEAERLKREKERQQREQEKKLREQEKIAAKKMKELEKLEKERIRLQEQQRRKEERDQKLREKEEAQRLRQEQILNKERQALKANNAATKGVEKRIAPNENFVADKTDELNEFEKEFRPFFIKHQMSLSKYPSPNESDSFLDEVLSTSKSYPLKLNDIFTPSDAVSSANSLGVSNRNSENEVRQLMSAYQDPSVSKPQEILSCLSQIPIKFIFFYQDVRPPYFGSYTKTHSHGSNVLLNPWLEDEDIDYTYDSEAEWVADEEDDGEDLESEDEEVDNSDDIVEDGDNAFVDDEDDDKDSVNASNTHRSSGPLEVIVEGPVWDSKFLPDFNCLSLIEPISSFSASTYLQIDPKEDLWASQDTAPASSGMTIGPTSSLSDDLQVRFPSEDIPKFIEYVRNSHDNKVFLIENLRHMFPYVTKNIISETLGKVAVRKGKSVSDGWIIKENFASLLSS
T2 sequence 2: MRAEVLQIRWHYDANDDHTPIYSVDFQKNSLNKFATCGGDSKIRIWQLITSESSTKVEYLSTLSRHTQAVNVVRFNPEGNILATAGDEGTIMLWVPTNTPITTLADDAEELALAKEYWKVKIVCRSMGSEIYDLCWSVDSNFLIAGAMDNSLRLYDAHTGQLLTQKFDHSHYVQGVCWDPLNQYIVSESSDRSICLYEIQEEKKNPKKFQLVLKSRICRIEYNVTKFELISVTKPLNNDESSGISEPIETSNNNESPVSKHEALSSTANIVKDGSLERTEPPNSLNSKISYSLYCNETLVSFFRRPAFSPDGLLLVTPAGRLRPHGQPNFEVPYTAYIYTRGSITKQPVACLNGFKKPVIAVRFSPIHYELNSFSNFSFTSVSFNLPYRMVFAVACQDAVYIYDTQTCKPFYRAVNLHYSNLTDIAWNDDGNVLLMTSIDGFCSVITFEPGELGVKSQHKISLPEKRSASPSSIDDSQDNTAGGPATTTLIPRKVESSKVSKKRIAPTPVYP
T2 sequence 3: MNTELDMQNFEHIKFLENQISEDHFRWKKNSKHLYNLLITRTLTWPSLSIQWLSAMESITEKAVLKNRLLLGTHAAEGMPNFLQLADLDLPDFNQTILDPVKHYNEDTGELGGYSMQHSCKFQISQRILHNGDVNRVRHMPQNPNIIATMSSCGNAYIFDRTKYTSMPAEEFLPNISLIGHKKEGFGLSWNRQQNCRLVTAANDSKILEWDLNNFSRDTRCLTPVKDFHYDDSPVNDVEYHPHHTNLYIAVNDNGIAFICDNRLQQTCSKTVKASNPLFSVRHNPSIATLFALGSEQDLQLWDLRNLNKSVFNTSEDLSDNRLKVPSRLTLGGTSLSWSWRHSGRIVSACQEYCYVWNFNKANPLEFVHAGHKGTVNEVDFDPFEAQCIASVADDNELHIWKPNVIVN

[3] = molecular target: T3, Pcf1 WT;Pcf2;Pcf3 (Schizosaccharomyces …, UniProt Q1MTN9;O13985;Q9Y825 1-544;1-512;1-408, ||)
T3 sequence 1: T2 sequence 1 with A172Q, A175L, A178F, A179F
T3 sequence 2: T2 sequence 2
T3 sequence 3: T2 sequence 3

[4] = molecular target: T4, Pcf1_KER-PIP (Schizosaccharomyces pombe, UniProt Q1MTN9 56-185)
T4 sequence: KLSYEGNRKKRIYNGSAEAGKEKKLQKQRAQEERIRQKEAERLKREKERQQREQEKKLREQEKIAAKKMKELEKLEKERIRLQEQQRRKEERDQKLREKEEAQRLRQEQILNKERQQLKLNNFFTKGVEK

B1: 40 bp dsDNA, Alexa488 (dsDNA)
DNA 1: ATCAATATCCACCTGCAGATACTACCAAAAGTGTATTTGG
DNA 2: CCAAATACACTTTTGGTAGTATCTGCAGGTGGATATTGAT
[1]
  apparent K (half saturation): 12.2 ± 0.7 µM
[2]
  apparent K (half saturation): 700 ± 100 nM
[3]
  apparent K (half saturation): 700 ± 100 nM
[4]
  apparent K (half saturation): 1900 ± 300 nM
